B1: Bacterial lipocalin Blc^G84 (natural protein, E. coli, UniProt P0A901 19-177, looked up)
chain: CSSPTPPRGVTVVNNFDAKRYLGTWYEIARFDHRFERGLEKVTATYSLRDDGGLNVINKGYNPDRGMWQQSEGKAYFTGAPTRAALKVSFFGPFYGGYNVIALDREYRHALVCGPDRDYLWILSRTPTISDEVKQEMLAVATREGFDVSKFIWVQQPGS
B2: Bacterial lipocalin Blc^E84 (natural protein, E. coli, UniProt P0A901 19-177, looked up)
chain: CSSPTPPRGVTVVNNFDAKRYLGTWYEIARFDHRFERGLEKVTATYSLRDDGGLNVINKGYNPDREMWQQSEGKAYFTGAPTRAALKVSFFGPFYGGYNVIALDREYRHALVCGPDRDYLWILSRTPTISDEVKQEMLAVATREGFDVSKFIWVQQPGS

Biological target: the molecule itself
Test: cross-linking

Row | Protein | stoichiometry N
1 | B1 | 2
2 | B2 | 2

Source: publication PMC7026729 (EBioMedicine, 2020)
